Measurements as given in patent publication US20240343799A1.

Legend:
huCD79b-N (human) [1] = target: huCD79b-N (human) (UniProt P40259); assay: BLI (ForteBio), antibody loaded on sensor, antigen in solution
huCD79b-N (human) [2] = target: huCD79b-N (human) (UniProt P40259); assay: BLI (ForteBio)

B1: hz34F1.14 (antibody, V domains shown)
VH: QVQLVQSGAEVKKPGASVKVSCKASGYSFTTYWMNWVRQAPGQGLTWMGMIDPSDSETHYNHLFKDRVTMTVDKSTSTAYMELSSLRSEDTAVYYCTRAIGYWGQGTLVTVSS
VL: DVVMTQSPLSLPVTLGQPASISCKSSLSLLDSEGKTYLNWFQQRPGQSPRPLISLVSKLDSGVPDRFSGSGSGTDFTLKISRVEAEDVGVYYCWQGTHFPLTFGGGTKVEIK
Kd (huCD79b-N (human) [1]): 8.07 nM

B2: hz38D9B3.11 (antibody, V domains shown)
VH: QVQLVQSGSELKKPGASVKVSCKASGYTFTDYSMHWVRQAPGQGLEWMGWINTETGEPSYADDFKGRFVFSLDTSVSTAYLQISSLKAEDTAVYYCYYGPYWGQGTLVTVSS
VL: EIVLTQSPATLSLSPGERATLSCKASQSVDHDVDSYMDWYQQKPGQAPRLLIYSASNLESGIPARFSGSGSGTDFTLTISSLEPEDFAVYYCQQINEYPYTFGGGTKVEIK
Kd (huCD79b-N (human) [1]): 0.275 nM

B3: polmab (antibody, human IgG1, kappa, V domains shown)
VH: EVQLVESGGGLVQPGGSLRLSCAASGYTFSSYWIEWVRQAPGKGLEWIGEILPGGGDTNYNEIFKGRATFSADTSKNTAYLQMNSLRAEDTAVYYCTRRVPIRLDYWGQGTLVTVSS
VL: DIQLTQSPSSLSASVGDRVTITCKASQSVDYEGDSFLNWYQQKPGKAPKLLIYAASNLESGVPSRFSGSGSGTDFTLTISSLQPEDFATYYCQQSNEDPLTFGQGTKVEIKR
Kd (huCD79b-N (human) [2]): 3.1 nM
Kd (huCD79b-N (human) [1]): 3.22 nM

B4: A7v14b (antibody, V domains shown)
VH: EVQLVQSGAEVKKPGASVKVSCKASGYTFTTYYMNWVRQAPGQGLEWIGMIDPSDSETHYNQKFQGRATLTVDTSTSTAYLELSSLRSEDTAVYYCSRSLAFWGQGTLVTVSS
VL: DIVMTQTPLSLPVTPGQPASISCKSSQSLLDSDGKTYLNWLLQKPGQSPQSLIYLVSKLDSGVPDRFSGSGSGTDFTLKISRVEAEDVGVYYCWQGTHFPQTFGQGTKVEIK
Kd (huCD79b-N (human) [1]): 8.56 nM

B5: hz11G10.9.p1 (antibody, V domains shown)
VH: QVQLVQSGAEVKKPGASVKVSCKASGYTFTDYWVNWVRQAPGQGLEWMGMIDPSDSETHYNQMFNDRVTMTVDTSTSTVYMELSSLRSEDTAVYYCTRSNYYWGQGTLVTVSS
VL: DIVMTQTPLSLSVTPGQPASISCKSSQSLLDSEGKTYLNWLLQKPGQSPQSLIYLVSKLDSGVPDRFSGSGSGTDFTLKISRVEAEDVGVYYCWQGTHFPLTFGGGTKVEIK
Kd (huCD79b-N (human) [1]): 3.4 nM
